The target of data set [1] is T1, Sso7c4 (Saccharolobus (Sulfolobus) solfataricus …, UniProt P81552 2-56).
T1 sequence: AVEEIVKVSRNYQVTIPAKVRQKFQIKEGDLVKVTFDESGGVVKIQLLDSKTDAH
As to the kind of experiment: NMR 1H-15N HSQC titration.

Data set [2] addresses T1, Sso7c4. As to the kind of experiment: SPR.
For data set [3], the target named is T1, Sso7c4. The data set is described as follows: NMR 1D 1H titration of DNA.

Experimental findings from PMC3159460 are described below.

B1: 16-mer duplex (NMR) (dsDNA)
DNA 1: CGCGTACGCGTACGCGTA
DNA 2: TACGCGTACGCGTACGCG
Regarding B1, the binding result with Sso7c4 [1] is given as “binds”.

B2: 8-mer duplex (SPR, biotinylated) (dsDNA)
DNA 1: CGCTATAGCG
DNA 2: CGCTATAGCG
With B2, binding with Sso7c4 [2] was put at a Kd of 10.1 µM.

B3: 12-mer duplex (dsDNA)
DNA 1: CAATCCGGATTG
DNA 2: CAATCCGGATTG
B3: the binding result with Sso7c4 [3] is reported as “binds”.

B4: 16-mer duplex (SPR, biotinylated) (dsDNA)
DNA 1: CGCGTACGCGTACGCG
DNA 2: CGCGTACGCGTACGCG
With B4, the Kd (in general, the free concentration of one partner at which half of the binding sites on the other are occupied at equilibrium, for simple one-to-one binding) in the data set with Sso7c4 [2] turned out to be 1.54 µM. That is a single-digit micromolar value.
